Drawing on the Human Domainome abundance scans (Beltran et al. 2025), this text covers abundance fitness for 45 variants.

± gives the uncertainty stated by the source.

B1: LIM and senescent cell antigen-like-containing domain protein 2, residues 13 to 71; numbered along this chain, Q7Z4I7 (parent)
chain: AVCQRCQARFSPAERIVNSNGELYHEHCFVCAQCFRPFPEGLFYEFEGRKYCEHDFQML

The data set covers variants of B1. In words: abundance fitness (aPCA) (normalised: wild type 0, dead -1); higher = more abundant; growth selection in yeast, the domain comes from the species named. The note with it: Homo sapiens.
In the case of AVCQRCDARFSPAERIVNSNGELYHEHCFVCAQCFRPFPEGLFYEFEGRKYCEHDFQML [Q7D], the abundance fitness is -0.54 ± 0.11.

In the case of AVCQRCCARFSPAERIVNSNGELYHEHCFVCAQCFRPFPEGLFYEFEGRKYCEHDFQML [Q7C], the abundance fitness is -0.194 ± 0.062.

For AVCQRCSARFSPAERIVNSNGELYHEHCFVCAQCFRPFPEGLFYEFEGRKYCEHDFQML [Q7S], the abundance fitness is -0.067 ± 0.042.

For the variant AVCQRCLARFSPAERIVNSNGELYHEHCFVCAQCFRPFPEGLFYEFEGRKYCEHDFQML [Q7L], the abundance fitness worked out at 0.068 ± 0.04.

Take AVCQRCIARFSPAERIVNSNGELYHEHCFVCAQCFRPFPEGLFYEFEGRKYCEHDFQML [Q7I]: the abundance fitness is -0.231 ± 0.061.

AVCQRCYARFSPAERIVNSNGELYHEHCFVCAQCFRPFPEGLFYEFEGRKYCEHDFQML [Q7Y]: the abundance fitness was -0.11 ± 0.072.

AVCQRCGARFSPAERIVNSNGELYHEHCFVCAQCFRPFPEGLFYEFEGRKYCEHDFQML [Q7G]: the abundance fitness worked out at 0.05 ± 0.053.

In the case of AVCQRPQARFSPAERIVNSNGELYHEHCFVCAQCFRPFPEGLFYEFEGRKYCEHDFQML [C6P], the abundance fitness is -0.896 ± 0.14.

Turning to AVCQRMQARFSPAERIVNSNGELYHEHCFVCAQCFRPFPEGLFYEFEGRKYCEHDFQML [C6M], the abundance fitness is -0.34 ± 0.098.

For the variant AVCQRRQARFSPAERIVNSNGELYHEHCFVCAQCFRPFPEGLFYEFEGRKYCEHDFQML [C6R], the abundance fitness is -0.544 ± 0.065.

Turning to AVCQRAQARFSPAERIVNSNGELYHEHCFVCAQCFRPFPEGLFYEFEGRKYCEHDFQML [C6A], the abundance fitness is -0.84 ± 0.18.

On to AVCQRIQARFSPAERIVNSNGELYHEHCFVCAQCFRPFPEGLFYEFEGRKYCEHDFQML [C6I], for which the abundance fitness is -1.16 ± 0.36.

AVCQRHQARFSPAERIVNSNGELYHEHCFVCAQCFRPFPEGLFYEFEGRKYCEHDFQML [C6H]: the abundance fitness was -1.08 ± 0.31.

For AVCQRFQARFSPAERIVNSNGELYHEHCFVCAQCFRPFPEGLFYEFEGRKYCEHDFQML [C6F], the abundance fitness was -0.677 ± 0.12.

In the case of AVCQRWQARFSPAERIVNSNGELYHEHCFVCAQCFRPFPEGLFYEFEGRKYCEHDFQML [C6W], the abundance fitness was -0.769 ± 0.095.

Consider AVCQRYQARFSPAERIVNSNGELYHEHCFVCAQCFRPFPEGLFYEFEGRKYCEHDFQML [C6Y], for which the abundance fitness was -0.732 ± 0.16.

Take AVCQRNQARFSPAERIVNSNGELYHEHCFVCAQCFRPFPEGLFYEFEGRKYCEHDFQML [C6N]: the abundance fitness is -0.679 ± 0.15.

Take AVCQRSQARFSPAERIVNSNGELYHEHCFVCAQCFRPFPEGLFYEFEGRKYCEHDFQML [C6S]: the abundance fitness was -0.804 ± 0.084.

Consider AVCQRDQARFSPAERIVNSNGELYHEHCFVCAQCFRPFPEGLFYEFEGRKYCEHDFQML [C6D], for which the abundance fitness is -1.03 ± 0.29.

With AVCQRQQARFSPAERIVNSNGELYHEHCFVCAQCFRPFPEGLFYEFEGRKYCEHDFQML [C6Q], the abundance fitness was -0.878 ± 0.16.

AVCQRGQARFSPAERIVNSNGELYHEHCFVCAQCFRPFPEGLFYEFEGRKYCEHDFQML [C6G]: the abundance fitness was -0.757 ± 0.1.

Regarding AVCQRTQARFSPAERIVNSNGELYHEHCFVCAQCFRPFPEGLFYEFEGRKYCEHDFQML [C6T], the abundance fitness was -0.935 ± 0.16.

Regarding AVCQRKQARFSPAERIVNSNGELYHEHCFVCAQCFRPFPEGLFYEFEGRKYCEHDFQML [C6K], the abundance fitness was -0.469 ± 0.11.

In the case of AVCQREQARFSPAERIVNSNGELYHEHCFVCAQCFRPFPEGLFYEFEGRKYCEHDFQML [C6E], the abundance fitness was -0.968 ± 0.24.

In the case of AVCGRCQARFSPAERIVNSNGELYHEHCFVCAQCFRPFPEGLFYEFEGRKYCEHDFQML [Q4G], the abundance fitness was -0.127 ± 0.071.

On to AVCSRCQARFSPAERIVNSNGELYHEHCFVCAQCFRPFPEGLFYEFEGRKYCEHDFQML [Q4S], for which the abundance fitness stood at 0.029 ± 0.064.

As for AVCMRCQARFSPAERIVNSNGELYHEHCFVCAQCFRPFPEGLFYEFEGRKYCEHDFQML [Q4M], the abundance fitness came out at 0.209 ± 0.1.

Regarding AVCTRCQARFSPAERIVNSNGELYHEHCFVCAQCFRPFPEGLFYEFEGRKYCEHDFQML [Q4T], the abundance fitness was 0.051 ± 0.078.

In the case of AVCLRCQARFSPAERIVNSNGELYHEHCFVCAQCFRPFPEGLFYEFEGRKYCEHDFQML [Q4L], the abundance fitness was found to be 0.184 ± 0.059.

For AVCVRCQARFSPAERIVNSNGELYHEHCFVCAQCFRPFPEGLFYEFEGRKYCEHDFQML [Q4V], the abundance fitness was -0.228 ± 0.068.

For the variant AVCCRCQARFSPAERIVNSNGELYHEHCFVCAQCFRPFPEGLFYEFEGRKYCEHDFQML [Q4C], the abundance fitness stood at 0.065 ± 0.11.

AVCNRCQARFSPAERIVNSNGELYHEHCFVCAQCFRPFPEGLFYEFEGRKYCEHDFQML [Q4N]: the abundance fitness turned out to be 0.679 ± 0.16.

AVCDRCQARFSPAERIVNSNGELYHEHCFVCAQCFRPFPEGLFYEFEGRKYCEHDFQML [Q4D]: the abundance fitness is 0.357 ± 0.11.

For the variant AVCRRCQARFSPAERIVNSNGELYHEHCFVCAQCFRPFPEGLFYEFEGRKYCEHDFQML [Q4R], the abundance fitness was -0.073 ± 0.064.

Turning to AVCHRCQARFSPAERIVNSNGELYHEHCFVCAQCFRPFPEGLFYEFEGRKYCEHDFQML [Q4H], the abundance fitness was determined as 0.035 ± 0.13.

Turning to AVCIRCQARFSPAERIVNSNGELYHEHCFVCAQCFRPFPEGLFYEFEGRKYCEHDFQML [Q4I], the abundance fitness is -0.216 ± 0.18.

Turning to AVCPRCQARFSPAERIVNSNGELYHEHCFVCAQCFRPFPEGLFYEFEGRKYCEHDFQML [Q4P], the abundance fitness was -0.145 ± 0.11.

In the case of AVCWRCQARFSPAERIVNSNGELYHEHCFVCAQCFRPFPEGLFYEFEGRKYCEHDFQML [Q4W], the abundance fitness is -0.528 ± 0.1.

For AVCYRCQARFSPAERIVNSNGELYHEHCFVCAQCFRPFPEGLFYEFEGRKYCEHDFQML [Q4Y], the abundance fitness was found to be 0.086 ± 0.11.

Take AVCKRCQARFSPAERIVNSNGELYHEHCFVCAQCFRPFPEGLFYEFEGRKYCEHDFQML [Q4K]: the abundance fitness was -0.007 ± 0.091.

Turning to AVCERCQARFSPAERIVNSNGELYHEHCFVCAQCFRPFPEGLFYEFEGRKYCEHDFQML [Q4E], the abundance fitness is -0.133 ± 0.082.

Turning to AVCFRCQARFSPAERIVNSNGELYHEHCFVCAQCFRPFPEGLFYEFEGRKYCEHDFQML [Q4F], the abundance fitness was -0.161 ± 0.17.

AVTQRCQARFSPAERIVNSNGELYHEHCFVCAQCFRPFPEGLFYEFEGRKYCEHDFQML [C3T]: the abundance fitness was -1.22 ± 0.26.

Consider AVWQRCQARFSPAERIVNSNGELYHEHCFVCAQCFRPFPEGLFYEFEGRKYCEHDFQML [C3W], for which the abundance fitness is -0.42 ± 0.13.

Regarding AVYQRCQARFSPAERIVNSNGELYHEHCFVCAQCFRPFPEGLFYEFEGRKYCEHDFQML [C3Y], the abundance fitness is -0.887 ± 0.18.
